Results on 4 molecules are retold here after paper PMC8104411, “The structure of MgtE in the absence of magnesium provides new insights into channel gating” (PLoS Biology, 2021).

Substitutions are numbered along the chain they refer to. Names may count otherwise. “And” between values parts separate entries of the source, which are not always exact repeats. Identical values can stand only once.

Data set [1] deals with T1, full-length MgtE from Thermus thermophilus (Thermus thermophilus HB8 (ATCC 27634 / …, UniProt Q5SMG8)).
T1 construct: Mg2+ channel MgtE, Thermus thermophilus, full length; homodimer; In DDM micelles for ITC; source: E. coli C41 (DE3), purified (DDM solubilisation, Ni-NTA, HRV3C cleavage, SEC); not shown: His6, N-terminal, cleaved
Put plainly: ITC; Fab705 (25 uM) injected into the cell with full-length MgtE (about 2.5 uM monomer); 25°C; 20 mM HEPES pH 7.0, 150 mM NaCl, 0.05% DDM, 0 mM MgCl2; three repeats listed one by one. Particulars: both partners purified. In general terms: In ITC the heat of successive injections is recorded.

Data set [2] deals with T2, full-length Thermus thermophilus MgtE (Thermus thermophilus, UniProt Q5SMG8).
T2 construct: MgtE Mg2+ channel, Thermus thermophilus, full-length gene in a pET28a-derived vector with an N-terminal hexahistidine tag and an HRV3C site; the cryo-EM model holds only residues 271 to 448 (TM domain); Homodimer; also called wild-type MgtE; WT MgtE; source: E. coli C41 (DE3), purified (Ni-NTA, SEC) in DDM; for cryo-EM reconstituted in PMAL-C8 amphipol; not shown: His6, N-terminal, cleaved
Put plainly: ITC; Fab705 (25 uM) injected into full-length MgtE (about 2.5 uM monomer) in the cell; 25°C; 20 mM HEPES pH 7.0, 150 mM NaCl, 0.05% DDM, 0 mM MgCl2. Particulars: both partners purified.

Data set [3] concerns the molecule itself. Put plainly: cryo-EM structure; full-length MgtE-Fab705 complex in PMAL-C8 amphipol, no Mg2+ or other divalent cations; 3.7 Å, C2 symmetry imposed.
Data set [4] concerns the molecule itself. Put plainly: cross-linking; disulfide cross-linking with Cu2+ bis-1,10-phenanthroline, 0.5 mg/ml MgtE mutant in 20 mM HEPES pH 7.0, 150 mM NaCl, 0.05% DDM, MgCl2 gradient (0.01 to 30 mM), 4°C, non-reducing SDS-PAGE.

B1: Fab705 (Fab, V domains shown)
VH: EVKLQESGVELVKPGASVKISCKASGYSFTGYNMNWVKQSHGKSLEWIGNISPYYGTSIYNQNFKGKATLTVDRSSSTAYMQLNSLTSEDSAVYYCARGESFSNYEGYYAMDYWGQGTSVIVSS
VL: DVLMTQTPLSLPVSLGDQASISCRSSQSLVHSDGNTYLHWYLQKPGQSPKLLIYKVSNRFSGVPDRFSGSGSGTDFTLKISRVEAEDLGVYFCSQSTHVPWTFGGGTKLEIK
notes: heavy chain of Fab YN0705; in the deposited MgtE-Fab structure PDB 6LBH; light chain of Fab YN0705; Fab made by papain digestion of the mouse monoclonal IgG YN0705 raised against MgtE proteoliposomes; also called Fab YN0705; Fab antibody fragment Fab705; source: mouse hybridoma culture supernatant; IgG purified by protein G, digested with papain, Fab isolated by gel filtration and protein A …
For B1, in data set [1], the Kd is 187 nM and 164 nM; the “stoichiometry N” value is 0.89 and 0.9 and 0.83.

B2: Fab antibody fragment Fab705 (Fab, V domains shown)
VH: B1 VH
VL: B1 VL
notes: heavy chain of the mouse Fab YN0705; light chain of the mouse Fab YN0705; Fab made by papain digestion of the mouse monoclonal IgG YN0705 raised against MgtE proteoliposomes; also called Fab YN0705; YN0705; source: mouse hybridoma culture supernatant; IgG purified by protein G, digested with papain, Fab isolated by gel filtration and protein A chromatography
B2 had a Kd in data set [2] of 216 ± 52.7 nM.

B3: full-length Thermus thermophilus MgtE (natural protein, UniProt Q5SMG8 1-450, looked up)
chain: MEEKLAVSLQEALQEGDTRALREVLEEIHPQDLLALWDELKGEHRYVVLTLLPKAKAAEVLSHLSPEEQAEYLKTLPPWRLREILEELSLDDLADALQAVRKEDPAYFQRLKDLLDPRTRAEVEALARYEEDEAGGLMTPEYVAVREGMTVEEVLRFLRRAAPDAETIYYIYVVDEKGRLKGVLSLRDLIVADPRTRVAEIMNPKVVYVRTDTDQEEVARLMADYDFTVLPVVDEEGRLVGIVTVDDVLDVLEAEATEDIHKLGAVDVPDLVYSEAGPVALWLARVRWLVILILTGMVTSSILQGFESVLEAVTALAFYVPVLLGTGGNTGNQSATLIIRALATRDLDLRDWRRVFLKEMGVGLLLGLTLSFLLVGKVYWDGHPLLLPVVGVSLVLIVFFANLVGAMLPFLLRRLGVDPALVSNPLVATLSDVTGLLIYLSVARLLLEAV
notes: MgtE Mg2+ channel, Thermus thermophilus, full-length gene in a pET28a-derived vector with an N-terminal hexahistidine tag and an HRV3C site; the cryo-EM model holds only residues 271 to 448 (TM domain); Homodimer; also called wild-type MgtE; WT MgtE; source: E. coli C41 (DE3), purified (Ni-NTA, SEC) in DDM; for cryo-EM reconstituted in PMAL-C8 amphipol; not shown: His6, N-terminal, cleaved
For B3, the “stoichiometry N” value in data set [3] amounted to 2.

B4: MgtE double cysteine mutant T336C/L421C (natural protein, Thermus thermophilus, UniProt Q5SMG8 1-450, looked up)
chain: B3 chain with T336C, L421C
notes: MgtE Mg2+ channel, Thermus thermophilus, with two cysteine substitutions; wild-type MgtE has no endogenous cysteine; source: E. coli C41 (DE3), purified as the wild type, with 20 mM DTT added before its removal by SEC; not shown: His6, N-terminal, cleaved
In the case of B4, in data set [4], the binding result is recorded as “binds”.

What is called Kd is the constant that tells how readily two partners part at equilibrium. As usually defined, the stoichiometry N is the number of molecules, sites or subunits per partner or assembly.
